Measured values from patent US20260242478A1 (published 2026).

Experiments:
[1] = target: Anti-CD28 Fab (SEQ ID NOs: 696, 697); assay: phage ELISA; biotinylated anti-CD28 Fab on neutravidin plate, clonal phage supernatant, anti-M13 HRP detection;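 also: crude supernatants of single phage clones picked after panning were screened for binding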
Target sequence in this assay (VH, as listed by the source, chain 1 of 2): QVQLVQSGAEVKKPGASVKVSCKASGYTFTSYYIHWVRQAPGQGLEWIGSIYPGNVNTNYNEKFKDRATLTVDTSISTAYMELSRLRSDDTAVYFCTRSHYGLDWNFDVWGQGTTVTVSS
Target sequence in this assay (VL, as listed by the source, chain 2 of 2): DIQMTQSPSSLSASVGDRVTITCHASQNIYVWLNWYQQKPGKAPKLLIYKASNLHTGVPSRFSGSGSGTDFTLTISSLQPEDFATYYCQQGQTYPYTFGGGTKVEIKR

[2] = target: Anti-CD28 Fab (SEQ ID NOs: 696, 697); assay: phage ELISA; Fab-coated wells pre-incubated with CD28 antigen as competitor, anti-M13 HRP detection;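 also: crude clonal phage supernatants screened by ELISA, comparing wells pre-treated with CD28 antigen in blocker against wells given blocker only, bound phage read via HRP-linked anti-M13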
Target sequence in this assay (VH, as listed by the source, chain 1 of 2): as the sequence (VH, as listed by the source, chain 1 of 2) above
Target sequence in this assay (VL, as listed by the source, chain 2 of 2): as the sequence (VL, as listed by the source, chain 2 of 2) above
Procedure: (§1) After panning, phage infected bacteria were plated out and colonies picked into 96 well blocks. Clonal phage was then amplified and separated from bacterial cells via centrifugation.
(§2) Clonal phage were harvested as crude supematants and screened via standard ELISAs. […] Prior to the addition of clonal phage, wells were incubated with blocking buffer and CD28 antigen or blocking buffer alone. Without washing or aspirating, clonal phage supematants were then added to the wells and incubated for a short time. Wells were then washed followed by detection of bound phage using a horse radish conjugated anti-M13 antibody. Clonal phage of interest were then sent for sequence analysis.

[3] = target: T1, Anti-CD28 Fab (SEQ ID NOs: 696, 697); assay: phage ELISA, clonal phage on biotinylated anti-CD28 Fab captured on neutravidin plates;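 also: crude clonal phage supernatants added to wells pretreated with CD28 antigen or with blocking buffer only, bound phage detected by HRP-linked anti-M13 antibody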
T1 construct: In the phage ELISA the Fab was biotinylated and captured on neutravidin coated plates
T1 sequence (VH, as listed by the source, chain 1 of 2): as the sequence (VH, as listed by the source, chain 1 of 2) above
T1 sequence (VL, as listed by the source, chain 2 of 2): as the sequence (VL, as listed by the source, chain 2 of 2) above
Procedure: as §1, §2

[4] = target: T1, Anti-CD28 Fab (SEQ ID NOs: 696, 697); assay: phage ELISA on captured anti-CD28 Fab, wells pre-incubated with CD28 antigen as competitor;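 also: crude clonal phage supernatants added without washing, bound phage read out by HRP-coupled anti-M13 antibody, reference wells given blocking buffer only instead of CD28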
Procedure: as §1, §2

[5] = target: T2, Anti-CD28 Fab (SEQ ID NOs: 696, 697); assay: phage ELISA; biotinylated anti-CD28 Fab on neutravidin plate, clonal phage supernatant, anti-M13 HRP detection;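 also: crude supernatants of single phage clones picked after panning were screened for binding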
T2 construct: In the phage ELISA the Fab was biotinylated and captured on neutravidin coated plates
T2 sequence (VH, as listed by the source, chain 1 of 2): as the sequence (VH, as listed by the source, chain 1 of 2) above
T2 sequence (VL, as listed by the source, chain 2 of 2): as the sequence (VL, as listed by the source, chain 2 of 2) above

[6] = target: T2, Anti-CD28 Fab (SEQ ID NOs: 696, 697); assay: phage ELISA; captured anti-CD28 Fab pre-incubated with CD28 antigen as competitor, anti-M13 HRP detection;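 also: crude clonal phage supernatants screened by ELISA, with wells pre-incubated with CD28 antigen in blocking buffer, compared against wells given blocking buffer alone as control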
[7] = target: T3, Anti-CD28 Fab (SEQ ID NOs: 696, 697); assay: phage ELISA, clonal phage on biotinylated anti-CD28 Fab captured on neutravidin plates;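 also: crude clonal phage supernatants added to wells pretreated with CD28 antigen or with blocking buffer only, bound phage detected by HRP-linked anti-M13 antibody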
T3 construct: Biotinylated and captured on neutravidin coated plates in the phage ELISA
T3 sequence (VH, as listed by the source, chain 1 of 2): as the sequence (VH, as listed by the source, chain 1 of 2) above
T3 sequence (VL, as listed by the source, chain 2 of 2): as the sequence (VL, as listed by the source, chain 2 of 2) above
Procedure: as §1, §2

[8] = target: T3, Anti-CD28 Fab (SEQ ID NOs: 696, 697); assay: phage ELISA on captured anti-CD28 Fab, wells pre-incubated with CD28 antigen as competitor;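 also: crude clonal phage supernatants added without washing, bound phage read out by HRP-coupled anti-M13 antibody, reference wells given blocking buffer only instead of CD28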
Procedure: as §1, §2

| Binder | Anti-CD28 Fab signal (phage binding ELISA) [1] | Anti-CD28 Fab signal in the presence of CD28 (phage binding ELISA) [2] | Anti-CD28 Fab signal (phage binding ELISA) [5] | Anti-CD28 Fab signal in the presence of CD28 (phage binding ELISA) [6] | also measured |
| --- | --- | --- | --- | --- | --- |
| YCAGHASEYMAKCL (Tested as clonal phage supernatant) [Phage-1100] | 1.33 | 0.08 | – | – | – |
| YCAGHVDQYLWKCL (Tested as clonal phage supernatant) [Phage-1099] | 1.34 | 0.06 | – | – | – |
| YCDGHSLEYIDKCM [Phage-1057] | – | – | – | – | Anti-CD28 Fab signal (phage binding ELISA) [3]: 1.42; Anti-CD28 Fab signal in the presence of CD28 (phage binding ELISA) [4]: 0.09 |
| YCDGHLPRYMAKCL (Tested as clonal phage supernatant) [Phage-1092] | 1.35 | 0.1 | – | – | – |
| YCAGHSAEYMSKCL (Clonal phage supernatant; not shown: fused to the pIII filament protein of the bacteriophage) [Phage-1062] | – | – | 1.41 | 0.07 | – |
| YCDGHSPEHMGKCL (Clonal phage supernatant; not shown: fused to the pIII filament protein of the bacteriophage) [Phage-1065] | – | – | 1.4 | 0.09 | – |
| YCDGHSEEFMWKCL (Tested as clonal phage supernatant) [Phage-1090] | 1.35 | 0.06 | – | – | – |
| YCDGHSLEYMLKCL (Clonal phage supernatant; not shown: fused to the pIII filament protein of the bacteriophage) [Phage-1070] | – | – | 1.39 | 0.07 | – |
| YCEGHSEEYMAKCL [Phage-1132] | – | – | – | – | Anti-CD28 Fab signal (phage binding ELISA) [7]: 1.26; Anti-CD28 Fab signal in the presence of CD28 (phage binding ELISA) [8]: 0.07 |
| YCEGHLQEHMAKCL [Phage-1134] | – | – | – | – | Anti-CD28 Fab signal (phage binding ELISA) [7]: 1.25; Anti-CD28 Fab signal in the presence of CD28 (phage binding ELISA) [8]: 0.05 |
| YCEGHSAEYIAKCL (Clonal phage supernatant; not shown: fused to the pIII filament protein of the bacteriophage) [Phage-1064] | – | – | 1.41 | 0.09 | – |
| YCDGHAEQYMSKCL (Clonal phage supernatant; not shown: fused to the pIII filament protein of the bacteriophage) [Phage-1073] | – | – | 1.38 | 0.07 | – |
| YCDGHSSVYMLKCL [Phage-1130] | – | – | – | – | Anti-CD28 Fab signal (phage binding ELISA) [7]: 1.26; Anti-CD28 Fab signal in the presence of CD28 (phage binding ELISA) [8]: 0.06 |
| YCDGHLMEYKAKCL (Clonal phage supernatant; not shown: fused to the pIII filament protein of the bacteriophage) [Phage-1063] | – | – | 1.41 | 0.06 | – |
| YCNGHLPEYMSKCI (Clonal phage supernatant; not shown: fused to the pIII filament protein of the bacteriophage) [Phage-1068] | – | – | 1.4 | 0.07 | – |
| YCEGHMEKYMEKCL (Tested as clonal phage supernatant) [Phage-1091] | 1.35 | 0.11 | – | – | – |
| YCDGHAPLYIQKCL (Tested as clonal phage supernatant) [Phage-1095] | 1.34 | 0.06 | – | – | – |
| YCDGHSEQYMAKCL [Phage-1137] | – | – | – | – | Anti-CD28 Fab signal (phage binding ELISA) [7]: 1.24; Anti-CD28 Fab signal in the presence of CD28 (phage binding ELISA) [8]: 0.06 |
| YCDGHSKEYMAKCL (Tested as clonal phage supernatant) [Phage-1096] | 1.34 | 0.06 | – | – | – |
| YCDGHSPAFIQKCL [Phage-1056] | – | – | – | – | Anti-CD28 Fab signal (phage binding ELISA) [3]: 1.42; Anti-CD28 Fab signal in the presence of CD28 (phage binding ELISA) [4]: 0.08 |
| YCDGHMVQYMAKCL (Tested as clonal phage supernatant) [Phage-1089] | 1.36 | 0.07 | – | – | – |
| YCDGHVEEYMTKCL [Phage-1141] | – | – | – | – | Anti-CD28 Fab signal (phage binding ELISA) [7]: 1.24; Anti-CD28 Fab signal in the presence of CD28 (phage binding ELISA) [8]: 0.07 |
| YCAGHAEEYLEKCL [Phage-1060] | – | – | – | – | Anti-CD28 Fab signal (phage binding ELISA) [3]: 1.41; Anti-CD28 Fab signal in the presence of CD28 (phage binding ELISA) [4]: 0.15 |
